Results from publication PMC8492941.

Biological target: ABD-fused VP1 (ABD-VP1) protein vaccine (not stated | Coxsackievirus B3) (UniProt P03313)
Assay: ELISA; sandwich ELISA on serum of mice injected subcutaneously with ABD-VP1 or VP1: plates pre-coated with anti-VP1 antibody, detection with anti-albumin antibody and HRP-labeled secondary antibody, absorbance at 450 nm; the complex formed in vivo

## mouse serum albumin (MSA) (from UniProt P07724 25-608) (natural protein)
  OD450: 0.7 OD450
